Experiments:
HLA-A*69:01 = test: IEDB peptide-MHC binding, purified MHC/direct/fluorescence; filed as Kd, often an IC50 or EC50 that approximates it; ≥ and ≤ were set here for values at or beyond the usual limits of such assays; settings: source organism: Entamoeba histolytica
HLA-A*02:19 = test: as above; settings: source organism: Entamoeba histolytica HM-1:IMSS
HLA-A*02:06 = test: as above; settings: source organism: Entamoeba histolytica HM-1:IMSS
HLA-B*18:01 = test: as above; settings: source organism: Entamoeba histolytica
HLA-B*27:05 = test: as above; settings: source organism: Entamoeba histolytica
HLA-A*02:03 = test: as above; settings: source organism: Entamoeba histolytica HM-1:IMSS
HLA-C*15:02 = test: as above; settings: source organism: Entamoeba histolytica HM-1:IMSS
HLA-B*44:02 = test: as above; settings: source organism: Entamoeba histolytica
HLA-B*40:01 = test: as above; settings: source organism: Entamoeba histolytica
HLA-B*15:01 = test: as above; settings: source organism: Entamoeba histolytica
HLA-A*01:01 = test: as above; settings: source organism: Entamoeba histolytica
HLA-A*03:01 = test: as above; settings: source organism: Entamoeba histolytica
HLA-A*02:01 = test: as above; settings: source organism: Entamoeba histolytica
HLA-A*24:02 = test: as above; settings: source organism: Entamoeba histolytica
HLA-B*07:02 = test: as above; settings: source organism: Entamoeba histolytica
HLA-B*58:01 = test: as above; settings: source organism: Entamoeba histolytica
HLA-A*02:12 = test: as above; settings: source organism: Entamoeba histolytica HM-1:IMSS
HLA-C*08:02 = test: as above; settings: source organism: Entamoeba histolytica HM-1:IMSS
HLA-A*02:11 = test: as above; settings: source organism: Entamoeba histolytica HM-1:IMSS
HLA-B*15:42 = test: IEDB peptide-MHC binding, purified MHC/competitive/fluorescence; filed as Kd, often an IC50 or EC50 that approximates it; ≥ and ≤ were set here for values at or beyond the usual limits of such assays; settings: source organism: Entamoeba histolytica HM-1:IMSS
HLA-A*03:19 = test: as above; settings: source organism: Entamoeba histolytica HM-1:IMSS
HLA-A*02:50 = test: as above; settings: source organism: Entamoeba histolytica HM-1:IMSS
HLA-C*06:02 = test: as above; settings: source organism: Entamoeba histolytica HM-1:IMSS
HLA-B*45:06 = test: as above; settings: source organism: Entamoeba histolytica HM-1:IMSS
HLA-B*83:01 = test: as above; settings: source organism: Entamoeba histolytica HM-1:IMSS

In the case of KLMPGSIYV, the Kd (HLA-A*69:01) is reported as 368 nM, the Kd (HLA-A*02:19) is reported as no more than 1 nM and the Kd (HLA-A*02:06) is reported as 2 nM. The Kd (HLA-B*18:01) was no less than 20000 nM, the Kd (HLA-B*27:05) was no less than 20000 nM and the Kd (HLA-A*02:03) was no more than 1 nM. It also gave a Kd (HLA-C*15:02) of 71 nM, a Kd (HLA-B*44:02) of no less than 20000 nM and a Kd (HLA-B*40:01) of no less than 20000 nM. The Kd (HLA-B*15:01) was 127 nM, the Kd (HLA-A*01:01) was no less than 20000 nM and the Kd (HLA-A*03:01) was 138 nM. The Kd (HLA-A*02:01) was 6.2 nM, the Kd (HLA-A*24:02) was no less than 20000 nM and the Kd (HLA-B*07:02) was no less than 20000 nM. For the same sequence, the Kd (HLA-B*58:01) was no less than 20000 nM, the Kd (HLA-A*02:12) was 2 nM and the Kd (HLA-C*08:02) was no less than 20000 nM. For the same sequence, the Kd (HLA-A*02:11) was no more than 1 nM, the Kd (HLA-B*15:42) was no less than 5000 nM and the Kd (HLA-A*03:19) was 109 nM. The Kd (HLA-A*02:50) was no more than 0.1 nM, the Kd (HLA-C*06:02) was 1170 nM and the Kd (HLA-B*45:06) was no less than 5000 nM. It also gave a Kd (HLA-B*83:01) of no less than 5000 nM.
